# Experiment: label from the status in PepcDB records
# 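Also: failed if final PepcDB status was selected cloned or expressed and not failed if soluble or beyond.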
row,Sequence,protein production
1,MFVEVFIVGLLAGMSPGPDFFIVMKNSLGFGARVGILTSLGIASALIVHITYTVLGFAFLIETYPALFFTIQLLGAAYLIWLGFHAIRSSPPKKEEAEIEETQPIQSTKDSKSSIQGFKEGFITNLLNPKAALFFLSIFSQFITPQTADWVRWMYGLEVVVAVGLWFSFLAIFISYKHFRRFYQTHSYWFDRFLGAALLFFAIRIIIGAF,failed
2,MFVRRFEEVLALPTAMTALLGCQLLGELIVRALHLPIPGPVLGLLLLLAWLLLGTTVTLPVSSSLPEVARGLLNHMSLLFIPAGVGIILHGQTLADQWLPISVSLFGSTALALIATALTFRAVCKIMERSKAKKEGGR,failed
3,MFVYAYILMLLLTVLMCINLFIDSFKCPVKIRRILRGLVFLIMLRYVTLLIMCLKKSITYIYFMRPIVLLDILYIPLVILIMIFVFTRSAKFNFVYAAISGIIFFSLYIFLNFKILKTANPFYSYSFGYLIDLKSYSVVVAVVKVMVLILMLMLCGYFLRKSNIRRAGFCFLMIVILVMLVENISIIIMPKVMPEYLFGEVLLLICLNYMVRLFKK,failed
4,MFYGRYDYPTGKFLWGNLRYQRVSEYNLQTFLNMKNSKLREEQIMSAKRDYYEVLGVSRDADKNTIKKAYRKLAKKYHPDTNQGNAQAAERFKEATEAYNILSDPEKKKMYDQFGHAAFDGSGAAGGAYGGAYSRNGGGTYQYAGPDGTFHEYHFEGNGDMDDFLKNIFGGSFGGFGGATRSSSKGSRSGFSGSGFGRSGFGGTGFSGSGFGGSGFSGSGFGESGSYGNYSQGGADVTAEITVGFDEAAFGCEKVIHLTENNGKAVGKALKVKIPAGIDTGKSIRLRGKGNPGINGGKAGDLLLKVKVASKPGYERKGMDVYTTVRVPFTTAVLGGEAKVETLHGNVLCKINPGTQSGTKIRLRGKGIVSMKDKNQHGDQYVTVQIDVPGNLSEEAKRKLREFEVACKKGQQGVA,failed
5,MFYKEENFKKTEIGEIPEDWEIVELKDVCKKIKAGGTPKTSVEEYYKNGTIPFVKIEDITNSNKYLTNTKIKITEEGLNNSNAWIVPKNSVLFAMYGSIGETAINKIEVATNQAILGIIPKDNILESEFLYYILAKNKNYYSKLGMQTTQKNLNAQIVKSFKIPLPPLEEQKQIAKILTKIDEGIEIIEKSINKLERIKKGLMHKLLTKGIGHSRFKKSEIGEIPEDWEVFEIKDIFEVKTGTTPSTKKSEYWENGEINWITPLDLSRLNEKIYIGSSERKVTKIALEKCNLNLIPKGSIIISTRAPVGYVAVLTVESTFNQGCKGLFQKNNDSVNTEFYAYYLKFKKNLLENLSGGSTFKELSKSMLENFKIPLPPLEEQKQIAKILSSVDKSIELKKQKKEKLQRMKKKIMELLLTGKVRVKT,not failed
6,MFYTIEELVQQADRDYQGNIAELMIATETELSGRDRSEILELMTRNLEVMKDSVQTGLSPEKSPTGLTGGDAAKLDAYIKRGKTLADSAVLGAARNAMAVNESNAKMGLVCATPTAGSAGCLPAVLTVAIEKLGLNESQQLDFLFTAGAFGLVIANKASISGAEGGCQAEVGSASAMAAAAITMAAGGTPFQASQAICFVLKNMLGLICDPVAGLVEVPCVKRNAMGASFALVAADMALAGITSAIPVDQVVDAMYQVGSAMPTAFRETAEGGLAATPKGKALAKEIFG,not failed
7,MGAASCEDEELEFKLVFGEEKEAPPLGAGGLGEELDSEDAPPCCRLALGEPPPYGAAPIGIPRPPPPRPGMHSPPPRPAPSPGTWESQPARSVRLGGPGGGAGGAGGGRVLECPSIRITSISPTPEPPAALEDNPDAWGDGSPRDYPPPEGFGGYREAGAQGGGAFFSPSPGSSSLSSWSFFSDASDEAALYAACDEVESELNEAASRFGLGSPLPSPRASPRPWTPEDPWSLYGPSPGGRGPEDSWLLLSAPGPTPASPRPASPCGKRRYSSSGTPSSASPALSRRGSLGEEGSEPPPPPPLPLARDPGSPGPFDYVGAPPAESIPQKTRRTSSEQAVALPRSEEPASCNGKLPLGAEESVAPPGGSRKEVAGMDYLAVPSPLAWSKARIGGHSPIFRTSALPPLDWPLPSQYEQLELRIEVQPRAHHRAHYETEGSRGAVKAAPGGHPVVKLLGYSEKPLTLQMFIGTADERNLRPHAFYQVHRITGKMVATASYEAVVSGTKVLEMTLLPENNMAANIDCAGILKLRNSDIELRKGETDIGRKNTRVRLVFRVHVPQGGGKVVSVQAASVPIECSQRSAQELPQVEAYSPSACSVRGGEELVLTGSNFLPDSKVVFIERGPDGKLQWEEEATVNRLQSNEVTLTLTVPEYSNKRVSRPVQVYFYVSNGRRKRSPTQSFRFLPVICKEEPLPDSSLRGFPSASATPFGTDMDFSPPRPPYPSYPHEDPACETPYLSEGFGYGMPPLYPQTGPPPSYRPGLRMFPETRGTT,not failed
8,MGAATRVAPMTAAASSTKAWLMAARPQTLPAGAAPVIVGTGLAVYHGVFAPLPALFALFGALLLQIGTNFANDYYDAVRGADTEDRDGFTRVTAGGLIEPAAVKRAMYATFGLSMVIGLYLVAVGGVPILVVGLASIVAGITYSGGPLPYGYRGLGDLFVFVFFGLVAVAGTYYVQAAAHGGWFPLWIPEGTLPAAAVVAGLPAAGFSTAILVVNNIRDRETDAEAGKHTLAVILGYRLSRIEWSLMAGLGYAIPVVFWLDGYPATVLLPLVTAPLAIAIGRTVWNRTDGEALNPALQRTGKLLFAHSVCFALGFAAPAVI,failed
9,MGALLPRGQASRPRTRHGRSPQNDRRQEARDVTGRHLAMVQRPGKMARWVLCCECLRRPMDLTLRLATALLTASLLLPLRPAQAQLAGHGGPVRAIAVSSDGKTVLSGSFDTAAIRWSLATESAEQVLRFHSGAVNAAAFLGDGRMATAGADGQIAIWTAGGLQPDQVLEGHTGPIVGLVVSPDTSKLASASWDHTVRISSLSDGGTRVLQGHSQSVNGVAFAPDGKSLVSVGYDLTVRIWPLAGGSPEIVVMPAPLNAVAISPDGEIVTGAADGKLRMMTADGKENGEVMAGARPIVALAISQDGALIATGAIDGTVAIVDRKARSVMRTLAGLGAPVWSVAFLPDGATLLTGGADGKIRRWNALTGAAIGSNVLGTPADPLAAYVGDHGAEMFRACVACHTLSENEVQRAGPTLAGLFGRKIASLPGYRFTDALKAMDIVWTPETVSKLFEIGPNAYTPGTKMPEQRIGSAEDRRALTDFLARATSK,failed
10,MGALRGRWAEEEALRFLLGKGYRLLWRNRRTPFGEVDLFMEKDGVYVVVEVKQRASARFGAPLEAITPGKVRRLLQSARFLLGRDDLPVRLEAVLVHGTPKDFRLEHLVLEL,failed
11,MGDPFGGRFGGFRGSLFGGRDPFDDPFFSRPFEDLLEPSNTFSSGASFSNAHKNNGGRGLTIEELPSDEEVEERKDIGIDDQEHASSVNKPSVEHPEDDSDAERKIQNVNQRSDFNRREGTQSRANTFRHHISKVTYGGIHGAYYTSTRTRRKDGDGMVVEESKEADKTTGEATHRISRGINDKVIDYTVDGHSVTRKLNSSGGVESTQTLHNLDEGPAESTQPYHNLKFFERKLAGF,failed
12,MGDVVEMTSELGFKYSILASGSTGNSFYLETPEKKILVDAGLSGKKITSLLAEIDRDPSDLDAILVTHEHKDHIHGVGVLARKYGMDIYANEKTWQIMDSKNMLGKVDNSQKHIFSRGKLLTFGDIDIESFGVSHDAINPQFYRFMKDGKSFVMLTDTGYVSDRMAGLIENADGYLIESNHDIEILRAGSYPWSTKQRILSDQGHLCNEDGADAMIRTIGNKTKKIYLGHLSKENNIKELAYMTMENQLARADFGVGTDFKIFVTSPDTATPLTDILEHHHHHH,not failed
13,MGDWSKLPEELLGLIALRLYSVIELIRFRSICKSWRSSASGVNKNHSLSSPLIYFKPLQIILARAQANGQILSKYHGTVLSRATFFRVTLASSPDQGWLIKSDTDLKYRNFHLLNCLSRKALGRSRKLISLSEFIVSEIQESYAVVGRRTRETASEFKRVFLVRVQGGDHRVLVIGIDGKIRFWKGGIWNGIKKQVAQFSDFVLDEGLTYAVDTKGIMWWISSAYDIIRYGTKLHENITNGSCGEKRFVRCRGELYIVDRLIDENLLKRKADSYDDNAIVHFRNADYTNADLWEDGNGNDDFFAAQAHRFIHVLHDNLGNVSCKPFERDPPKTIGFKVYKNDEELLKWVEVKSLGDKAIVIATDACFSVSAHEFYGCLPNSIYFTDKKEEEVKVFKLDDGSITTMSESEQSCFQMFVPSFL,not failed
14,MGEDRRSLRVDYDDNFLRNNICSLKVSFIKQQGGAEGVKRLYADLGLALVALIWGSTFPVVKIALDSMSPFAFNTVRFFIACLFFLPFLKGWDFKDGFKIGIASFLGYTFQTVGLDYTTATNAGFITSTYVVLAPIISWLVYKDVFDKRDVSGVLLAFVGFYFLSGYSGFNIGDILMLFCALFFGAEIAMISHYSRLSNPTMLAFWQSFAIFILSAPFAVFTTTKFEINTTVILCLLITAFFATFVAKMLQNWLQSYTKSSDAAVILSLEGVFAHLFSVAVLAEILTPVQYFGAFLILLAVIIVSLRV,failed
15,MGEEAALDSFVKLEETLGEDEPCTARIIAPSSRAVLQSPTPPLPLKPHFLTNFPKYWSRPYLQAVPLHCQWERIPELVKQLSAKLIANDDMAELLLGESKLEQHLKEKPLRQGASPRGPRPQLTEVRKHLTAALDRGNLKSEFLQESNLVMAKLNYVEGDYKEALNIYARVGLDDLPLMAVPPYRLRMIAEAYATKGLCLEKLPVSSSTSNLHVDREQDVITCYEKAGDIALLYLQEIERVILTNIQNRSPKPGPAPHDQELGFFLETGLQRAHVLYFKNGNLTRGVGRFRELLRAVETRTTQNLRMTIARQLAEILLRGMCEQSYWNPLEEPPCQSPLDDPLRKGANTKTYTLPRRARVYSGENIFCPQENTEEALLLLLISESMANRDAVLSRIPEHKSDRLISLQSASVVYDLLTIALGRRGQYEMLSECLERAMKFAFEEFHLWYQFALSLMAAGKSARAVKVLKECIRLKPDDATIPLLAAKLCVGSLHWLEEAEKFAKTVVDVGEKTSEFKAKGYLALGLTYSLQATDASLRGMQEVLQRKALLALQRAHSLSPTDHQAAFYLALQLAISRQIPEALGYVRQALQLQGDDANSLHLLALLLSAQKHHHDALNIIDMALSEYPENFILLFSKVKLESLCRGPDEALLTCKHMLQIWKSCYNLTNPSDSGRGSSLLDRTIADRRQLNTITLPDFSDPETGSVHATSVAASRVEQALSEVASSLQSSAPKQGPLHPWMTLAQIWLHAAEVYIGIGKPAEATACTQEAANLFPMSHNVLYMRGQVAELRGNFDEARRWYEEALSISPTHVKSMQRLALVLHQLGRYSLAEKILRDAVQVNSTAHEVWNGLGEVLQAQGNDAAATECFLTALELEASSPAVPFTVIPRVL,failed
16,MGEEEAVAEENGGLKVESGEQKSSWPTMRFDVSPYRTHHFSKQFRTARNPNNFLKGLKWSPDGSCFLASSEDNTLSLFHLPQDGGDSNGYGVPVPEEDSYGASLLVNEGESVYDFCWYPYMSVSDPLTCVFATSTRDHPIHLWDSTSGELRCTYRAYDAMDEITAAFSVGFNPDGTKIFAGYNSSIRVFDLHRPGRDFRQYSTLQKNKEGQAGILSTLAFSPTNSGMLAVGSYGQTTGIYREDNMELLYVLHGQEGGVTHVQFSKDGNYLYTGGRKDPYILCWDIRKSVEIVYKLYRATENTNQRVFFDIEPCGRHLGTGGQDGLVHMYDLQTGNWVSGYQAASDTVNAFSFHPYLPMAATSSGHRRFAIPDDDDGEDKNELQLKADENCVSLWSFYVEDNTYDENNGVASESHLQNVTEEIVLT,failed
17,MGEGGQRATPSVTKIVGGEMAARVRAFDWSKTPLGPREDWSPALRLATDIVLASNFPMALRWGPELVLIYNDGYAPALHERHPSALGQSFYDTTPEFQAALRELHQDILTGTSGGFAFERLPLKVLKNGVLEAAYFTVNYSPVPDETAPNGIGGVLVAAVEISQSVKAEQTLRATQERYQ,failed
18,MGELIYGEVKKQTKDGFIIDLGDNAEAYLAREEMIAKEILRPKQRMNAILYSVNREGRGAQLLLSRARPEMLMALMKKEIPLEHHHHHH,failed
19,MGENVLICLCGSVNSINISHYIIELKSKFDEVNVIASTNGRKFINGEILKQFCDNYYDEFEDPFLNHVDIANKHDKIIILPATSNTINKIANGICDNLLLTICHTAFEKLSIFPNMNLRMWENPVTQNNIRLLKDYGVSIYPANISESYELASKTFKKNVVAPEPYKVLEFI,not failed

# — a protein production outcome set (Wang et al. 2014)
